1 substance from paper PMC10747570 can be followed below.

For this assay, the target named is Hibiscus green spot virus movement protein BMB2 (Hibiscus green spot virus). As to the kind of experiment: FRET or BRET; FRET-FLIM: GFP fluorescence lifetime measured in PAMBs of N. benthamiana leaf cells coexpressing BMB2-GFP (donor) and BMB2-mRFP (acceptor), 3 dpi; control without acceptor: BMB2-GFP with non-fused BMB2. In general terms: In BRET a luciferase serves as donor, and the signal depends on an acceptor being close.

Regarding “Hibiscus green spot virus movement protein BMB2 (natural protein)”, the FRET efficiency is 69.8% and the GFP excited-state lifetime with the acceptor turned out to be 0.74 ns.
